Drawing on PMC10303025, this text covers Kd for 1 molecule.

The target in the data set is T1, M2-1 transcription antiterminator (Human respiratory syncytial virus, UniProt P04545 1-194).
T1 sequence: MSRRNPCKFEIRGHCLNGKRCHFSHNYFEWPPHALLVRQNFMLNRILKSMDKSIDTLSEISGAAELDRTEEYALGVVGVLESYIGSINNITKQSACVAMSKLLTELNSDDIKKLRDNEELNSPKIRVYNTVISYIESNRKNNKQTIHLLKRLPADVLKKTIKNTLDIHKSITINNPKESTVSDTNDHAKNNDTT
Description: not stated (EMSA and fluorescence polarization titrations mentioned); Kd may derive from earlier work [37]. Particulars: protein: recombinant; chain copies: 4; label: 5' 6-FAM; single strand. A general note: In EMSA bound probe runs differently from free probe, usually more slowly.

B1: RNARSV20 (SH gene end 20-mer) (ssRNA)
RNA: AUAAAGUAGUUAAUUAAAAA
Turning to B1, the Kd is 20 nM.

Broadly, the Kd is the free concentration of one partner at which half of the binding sites on the other are occupied at equilibrium, for simple one-to-one binding.
